In patent US20060199761A1, “Insulin resistance improving agent” (Japan Science And Technology Agency, priority 2002, published 2006):

Tests used:
lipoatrophic mice [1] = experiment: Lipoatrophic mice (PPAR-γ+/− mice treated with HX531) with or without adiponectin, gAd or leptin; assay type: in vivo, mouse; conditions: for Liver TG content / Serum FFA / Serum TG / Skeletal muscle TG content: HF diet; for insulin resistance (FIG. 8): mice without adipose tissue, administration at a physiological concentration; for hyperglycemia and hyperinsulinemia (insulin resistance index, FIG. 8): lipoatrophic mice, continuous systemic infusion
Method: (§1) The measurements of [^14C] CO2 production from [1-^14C] palmitic acid were performed using liver and muscle slices as described (Diabetes 47, 1841-1847 (1998)). Liver and muscle homogenates were prepared, and tissue triglyceride content was determined with an extract solution (CHCl3:CH3OH=2:1). The remainder of the liver and muscle was immediately frozen in liquid nitrogen and stored at −80° C. until measurement of the enzymatic activity of ACO. ACO activity in the light mitochondrial fraction of liver and muscle was measured by assay that was based on the H2O2 dependent oxidation of leuco-dichlorofluorescein (Diabetes 47, 1841-1847 (1998)).
Unless otherwise described herein, administration was performed through continuous systemic infusion (pump) in combination with a high-fat (HF) diet for the final twelve days of the six-week HX531 treatment.
FIGS. 9 and 10 show mRNAs of fatty-acid translocase (FAT)/CD36, ACO, UCP2, and PPAR-α in mouse skeletal muscle and in liver, respectively. […] HX531 was administered as a 0.1% food admixture. Mice were stimulated with or without 1 U/g body weight of insulin for two minutes. Lysates were subjected to immunoprecipitation (IP) and immunoblotting through use of the antibodies described in Mol. Cell. Biol. 16, […] (1996).

lipoatrophic mice [2] = experiment: as above; assay type: in vivo, mouse; conditions: HX531 for four weeks
db/db mice [3] = experiment: Rosiglitazone treatment of db/db mice on high-fat diet (adiponectin expression, glucose tolerance test)
PPAR-γ+/− mice = experiment: Adiponectin infusion in PPAR-γ+/− mice on high-fat diet without HX531 (tissue TG, serum FFA/TG); assay type: in vivo, mouse; conditions: HF diet, no HX531, Ad 50 μg/day continuous infusion 12 days
Method: as §1
While PPAR-γ^+/− mice were treated with HX531 for six weeks (+) or untreated (−), recombinant full-length adiponectin (Ad), gAd, or leptin (Lep) was administered to each PPAR-γ^+/− mouse at a predetermined dose (μg/day). Administration was performed through continuous systemic infusion in combination with the high-fat (HF) diet for the final twelve days of the six-week HX531 treatment (six weeks).

db/db mice [4] = tested on: db/db mice
Method: (§2) Adiponectin or leptin was administered to mice through intraperitoneal injection or continuous systemic infusion as described (Nature 401, 73-76 (1999)). An Alzet micro-osmotic pump (model 1002, Alza) was inserted subcutaneously in the back of each mouse. A daily dose (shown in Figures) of recombinant leptin (Sigma) or adiponectin was dissolved in a total volume of 0.1 mL of PBS, and the solution was delivered to mice through the pump for twelve days.
(§3) The areas of glucose and insulin curves were calculated by multiplying the cumulative mean height of the glucose values (1 mg/ml=1 cm) and insulin values (1 ng/ml=1 cm), respectively, by time (60 min=1 cm) (Am. J. Physiol. 240, E482-488 (1981)).
(§4) The mice were fed an HC or HF diet. In addition, Ad or gAd was administered, or none of these was administered, to the mice at a predetermined dose (μg/day).

KKA^y mice [5] = experiment: Adiponectin administration to KKAy mice on high-fat diet; assay type: in vivo, mouse; conditions: adiponectin-administered KKAy mice
KKA^y mice [6] = experiment: as above; assay type: in vivo, mouse; conditions: for ACO activity, liver / ACO activity, skeletal muscle / Fatty acid oxidation [14C] palmitate→CO2, liver / Fatty acid oxidation [14C] palmitate→CO2, skeletal muscle / Rectal temperature / Serum FFA / Serum TG / TG content, liver / TG content, skeletal muscle: high fat diet, two weeks
Method: as §1
The mice were fed an HC or HF diet.
The following values were determined through use of KKA^y mice: acyl-CoA oxidase (ACO) activity and fatty acid oxidation in the skeletal muscle and in the liver, tissue triglyceride content in the skeletal muscle and in the liver, and serum free fatty acid level and serum triglyceride level. Mice were fed with high fat diet, and full-length adiponectin (Ad) or adiponectin globular domain (gAd) was administered to each mice at a dose shown in Table 2 for two weeks.

KK mice = experiment: Adiponectin administration to KK mice (serum leptin); assay type: in vivo, mouse
Method: as §2

[7] = PPAR-γ+/− mice, HX531 alone for 6 weeks
[8] = HX531 6 weeks + Ad 50 μg/day continuous infusion final 12 days
[9] = db/db mice, adiponectin replenishment
[10] = normal C57 mice, high-fat diet, two weeks
[11] = HX531 6 weeks + gAd 2.5 μg/day continuous infusion final 12 days
[12] = gAd at a low concentration, mRNA (FIG. 9)

Method for C57 mice: as §2, §3, §4

CN1c2ccc([N+](=O)[O-])cc2N=C(c2ccc(C(=O)O)cc2)c2cc3c(cc21)C(C)(C)CCC3(C)C [HX531, reference compound]
Liver TG content (lipoatrophic mice [1]; [7]): 19.36 ± 1.23 mg/g tissue | Serum FFA (lipoatrophic mice [1]; [7]): 1.48 ± 0.25 mEq/L | Serum TG (lipoatrophic mice [1]; [7]): 201.4 ± 25.3 mg/dL | Skeletal muscle TG content (lipoatrophic mice [1]; [7]): 15.96 ± 1.47 mg/g tissue | lowering of expression of lipoprotein lipase (LPL) in WAT (lipoatrophic mice [1]; PPAR-γ+/− mice, HX531 for three weeks): ≥ 90% | visible WAT (lipoatrophic mice [2]): disappearance of visible WAT

CN(CCOc1ccc(CC2SC(=O)NC2=O)cc1)c1ccccn1 (stereo not drawn) [Rosiglitazone]
adipose tissue mass (db/db mice [3]): 2.84 ± 0.16 g | body weight (db/db mice [3]): 47.9 ± 1.0 g

leptin: recombinant leptin (Sigma)
insulin resistance (FIG. 8) (lipoatrophic mice [1]): alleviate their insulin resistance, albeit partially

B1: Ad: recombinant full-length mouse adiponectin, histidine-tagged fusion protein expressed in bacteria (protein, UniProt Q15848 19-244, looked up)
Adiponectin: ETTTQGPGVLLPLPKGACTGWMAGIPGHPGHNGAPGRDGRDGTPGEKGEKGDPGLIGPKGDIGETGVPGAEGPRGFPGIQGRKGEPGEGAYVYRSAFSVGLETYVTIPNMPIRFTKIFYNQQNHYDGSTGKFHCNIPGLYYFAYHITVYMKDVKVSLFKKDKAMLFTYDQYQENNVDQASGSVLLHLEVGDQVWLQVYGEGERNGLYADNDNDSTFTGFLLYHDTN
serum adiponectin levels (C57 mice; mouse, in vivo): partially restored | expression of leptin in WAT (C57 mice; wild-type mice): did not alter | hyperglycemia and hyperinsulinemia induced by high-fat diet (GTT) (C57 mice; wild-type mice on high-fat diet, continuous systemic infusion of low doses): significantly ameliorated | Liver TG content (lipoatrophic mice [1]; [8]): 16.19 ± 0.72 mg/g tissue | Serum FFA (lipoatrophic mice [1]; [8]): 0.61 ± 0.13 mEq/L | Serum TG (lipoatrophic mice [1]; [8]): 106.6 ± 18.1 mg/dL | Skeletal muscle TG content (lipoatrophic mice [1]; [8]): 7.74 ± 0.65 mg/g tissue | insulin-induced tyrosine phosphorylation of insulin receptor and insulin-receptor substrate 1 and insulin-stimulated phosphorylation of Akt kinase in skeletal muscle (lipoatrophic mice [1]; adiponectin-administered lipoatrophic mice (FIG. 11)): increase | hyperglycemia and hyperinsulinemia (insulin resistance index, FIG. 8) (lipoatrophic mice [1]): significantly ameliorated | insulin resistance (FIG. 8) (lipoatrophic mice [1]): not sufficient to completely ameliorate insulin resistance | Liver TG content (PPAR-γ+/− mice): 6.45 ± 0.26 mg/g tissue | Serum FFA (PPAR-γ+/− mice): 0.35 ± 0.02 mEq/L | Serum TG (PPAR-γ+/− mice): 60.5 ± 6.0 mg/dL | Skeletal muscle TG content (PPAR-γ+/− mice): 5.47 ± 0.32 mg/g tissue | hyperinsulinemia (GTT, FIG. 14) (db/db mice [4]; [9]): significantly ameliorated | leptin receptor deficiency-induced hyperglycemia (GTT, FIG. 13) (db/db mice [4]; [9]): significantly ameliorated | serum adiponectin levels (db/db mice [4]; mouse, in vivo): partially restored | expression of enzymes involved in β-oxidation and UCP2 in skeletal muscle (KKA^y mice [5]): increased | ACO activity, liver (KKA^y mice [6]; Ad 50 μg/day): 3.04 ± 0.85 nmol/mg/min | ACO activity, skeletal muscle (KKA^y mice [6]; Ad 50 μg/day): 0.37 ± 0.04 nmol/mg/min | Fatty acid oxidation [14C] palmitate→CO2, liver (KKA^y mice [6]; Ad 50 μg/day): 2.92 ± 0.29 nmol/g/h | Fatty acid oxidation [14C] palmitate→CO2, skeletal muscle (KKA^y mice [6]; Ad 50 μg/day): 3.95 ± 0.58 nmol/g/h | Rectal temperature (KKA^y mice [6]; Ad 50 μg/day): 37.3 ± 0.2 °C | Serum FFA (KKA^y mice [6]; Ad 50 μg/day): 0.67 ± 0.09 mEq/L | Serum TG (KKA^y mice [6]; Ad 50 μg/day): 101.3 ± 19.7 mg/dL | TG content, liver (KKA^y mice [6]; Ad 50 μg/day): 16.15 ± 0.83 mg/g tissue | TG content, skeletal muscle (KKA^y mice [6]; Ad 50 μg/day): 8.75 ± 0.58 mg/g tissue

B2: gAd: C-terminal globular domain of adiponectin, recombinant histidine-tagged fusion protein (protein, listed as Homo sapiens)
chain: AFSVGLETYVTIPNMPIRFTKIFYNQQNHYDGSTGKFHCNIPGLYYFAYHITVYMKDVKVSLFKKDKAMLFTYDQYQENNVDQASGSVLLHLEVGDQVWLQVYGEGERNGLYADNDNDSTFTGFLL
modifications: CDS (1)..(735)
Food intake (C57 mice; C57 mice on high-fat diet): 6.28 ± 0.51 g/day | WAT weight (C57 mice; [10]): 0.48 ± 0.04 g | body weight (C57 mice; [10]): 20.6 ± 2.1 g | serum leptin levels (C57 mice; wild-type mice): 10.4 ± 2.6 ng/mL | Liver TG content (lipoatrophic mice [1]; [11]): 13.81 ± 0.91 mg/g tissue | Serum FFA (lipoatrophic mice [1]; [11]): 0.43 ± 0.14 mEq/L | Serum TG (lipoatrophic mice [1]; [11]): 100.3 ± 17.5 mg/dL | Skeletal muscle TG content (lipoatrophic mice [1]; [11]): 3.88 ± 1.74 mg/g tissue | expression of CD36, acyl-CoA oxidase (ACO) and uncoupling protein (UCP) 2 in skeletal muscle (lipoatrophic mice [1]; [12]): increased | expression of PPAR-α in skeletal muscle (lipoatrophic mice [1]; [12]): increased | expression of CD36 in the liver (lipoatrophic mice [1]; gAd at a low concentration, mRNA (FIG. 10)): decreased | hyperglycemia and hyperinsulinemia (insulin resistance index, FIG. 8) (lipoatrophic mice [1]): much more potently than full-length adiponectin | serum leptin levels (KK mice): 13.4 ± 2.7 ng/mL | serum leptin levels (db/db mice [4]; db/db mice): 145.2 ± 14.7 ng/mL | serum leptin levels (KKA^y mice [6]): 57.9 ± 5.7 ng/mL | ACO activity, liver (KKA^y mice [6]; gAd 2.5 μg/day): 2.89 ± 0.35 nmol/mg/min | ACO activity, skeletal muscle (KKA^y mice [6]; gAd 2.5 μg/day): 0.42 ± 0.04 nmol/mg/min | Fatty acid oxidation [14C] palmitate→CO2, liver (KKA^y mice [6]; gAd 2.5 μg/day): 2.89 ± 0.21 nmol/g/h | Fatty acid oxidation [14C] palmitate→CO2, skeletal muscle (KKA^y mice [6]; gAd 2.5 μg/day): 4.06 ± 0.44 nmol/g/h | Rectal temperature (KKA^y mice [6]; gAd 2.5 μg/day): 37.7 ± 0.1 °C | Serum FFA (KKA^y mice [6]; gAd 2.5 μg/day): 0.39 ± 0.04 mEq/L | Serum TG (KKA^y mice [6]; gAd 2.5 μg/day): 96.4 ± 18.3 mg/dL | TG content, liver (KKA^y mice [6]; gAd 2.5 μg/day): 16.04 ± 0.91 mg/g tissue | TG content, skeletal muscle (KKA^y mice [6]; gAd 2.5 μg/day): 8.06 ± 0.61 mg/g tissue
